Measurements as given in PMC10786891, “Massively parallel profiling of RNA-targeting CRISPR-Cas13d”.
Numbering of substitutions follows the chain as printed. In names and notes the source's numbering stands.

B1: target 1 G5A,C6A (mixed)
RNA 1: CACCCGUGCAAAAAUGCAGGGGUCUAAAACUGAGCGGAUAACCUCUCUAUGG
RNA 2: GGGAAUGGAUCCACAUCUACGAAUUCGUACCAUAGAGAGGUUAUCAACUCACCGAGAUCGGAAGAGCACACGU
B2: target 1 MT 5'PFS GAA 3'PFS UAU (mixed)
RNA 1: B1 RNA 1
RNA 2: B1 RNA 2 with U28A, A46C, A47G, C52U, C53A, G54U
B3: target 1 MT 5'PFS GUU 3'PFS AAG (mixed)
RNA 1: B1 RNA 1
RNA 2: B1 RNA 2 with A29U, A46C, A47G, C52A, C53A
B4: target 1 MT 5'PFS GUU 3'PFS AAA (mixed)
RNA 1: B1 RNA 1
RNA 2: B1 RNA 2 with A29U, A46C, A47G, C52A, C53A, G54A
B5: target 1 MT 5'PFS UAU 3'PFS UCU (mixed)
RNA 1: B1 RNA 1
RNA 2: B1 RNA 2 with G27U, U28A, A29U, A46C, A47G, C52U, G54U
B6: target 1 MT 5'PFS GAA 3'PFS UAC (mixed)
RNA 1: B1 RNA 1
RNA 2: B1 RNA 2 with U28A, A46C, A47G, C52U, C53A, G54C
B7: target 1 MT 5'PFS GAA 3'PFS UAA (mixed)
RNA 1: B1 RNA 1
RNA 2: B1 RNA 2 with U28A, A46C, A47G, C52U, C53A, G54A
B8: target 1 MT 5'PFS GUU 3'PFS UCU (mixed)
RNA 1: B1 RNA 1
RNA 2: B1 RNA 2 with A29U, A46C, A47G, C52U, G54U
B9: target 1 MT 5'PFS CUG 3'PFS UCC (mixed)
RNA 1: B1 RNA 1
RNA 2: B1 RNA 2 with G27C, A29G, A46C, A47G, C52U, G54C
B10: target 1 MT 5'PFS UAG 3'PFS CAC (mixed)
RNA 1: B1 RNA 1
RNA 2: B1 RNA 2 with G27U, U28A, A29G, A46C, A47G, C53A, G54C
B11: target 1 MT 5'PFS UAG 3'PFS CAA (mixed)
RNA 1: B1 RNA 1
RNA 2: B1 RNA 2 with G27U, U28A, A29G, A46C, A47G, C53A, G54A
B12: target 1 U8C,U11G (mixed)
RNA 1: B1 RNA 1
RNA 2: B1 RNA 2 with U41G, U44C, A46C, A47G
B13: target 1 MT 5'PFS UAG 3'PFS CAG (mixed)
RNA 1: B1 RNA 1
RNA 2: B1 RNA 2 with G27U, U28A, A29G, A46C, A47G, C53A
B14: target 1 MT 5'PFS CUG 3'PFS UCU (mixed)
RNA 1: B1 RNA 1
RNA 2: B1 RNA 2 with G27C, A29G, A46C, A47G, C52U, G54U
B15: target 1 MT 5'PFS UAG 3'PFS CAU (mixed)
RNA 1: B1 RNA 1
RNA 2: B1 RNA 2 with G27U, U28A, A29G, A46C, A47G, C53A, G54U
B16: target 1 MT 5'PFS CCG 3'PFS AGU (mixed)
RNA 1: B1 RNA 1
RNA 2: B1 RNA 2 with G27C, U28C, A29G, A46C, A47G, C52A, C53G, G54U
B17: target 1 MT 5'PFS GUG 3'PFS GUG (mixed)
RNA 1: B1 RNA 1
RNA 2: B1 RNA 2 with A29G, A46C, A47G, C52G, C53U
B18: target 1 MT 5'PFS CCG 3'PFS AGA (mixed)
RNA 1: B1 RNA 1
RNA 2: B1 RNA 2 with G27C, U28C, A29G, A46C, A47G, C52A, C53G, G54A
B19: target 1 MT 5'PFS GUG 3'PFS GUC (mixed)
RNA 1: B1 RNA 1
RNA 2: B1 RNA 2 with A29G, A46C, A47G, C52G, C53U, G54C
B20: target 1 MT 5'PFS ACC 3'PFS CCG (mixed)
RNA 1: B1 RNA 1
RNA 2: B1 RNA 2 with G27A, U28C, A29C, A46C, A47G
B21: target 1 MT 5'PFS GCG 3'PFS UAC (mixed)
RNA 1: B1 RNA 1
RNA 2: B1 RNA 2 with U28C, A29G, A46C, A47G, C52U, C53A, G54C
B22: target 1 MT 5'PFS GAA 3'PFS AGA (mixed)
RNA 1: B1 RNA 1
RNA 2: B1 RNA 2 with U28A, A46C, A47G, C52A, C53G, G54A
B23: target 1 insC 3' of 11,insA 3' of 5 (mixed)
RNA 1: B1 RNA 1
RNA 2: GGGAAUGGAUCCACAUCUACGAAUUCGUACCAUAGAGAGGUCUAUCCGACUCACCGAGAUCGGAAGAGCACACGU
B24: target 1 MT 5'PFS GCG 3'PFS UAA (mixed)
RNA 1: B1 RNA 1
RNA 2: B1 RNA 2 with U28C, A29G, A46C, A47G, C52U, C53A, G54A
B25: target 1 MT 5'PFS GCG 3'PFS UAG (mixed)
RNA 1: B1 RNA 1
RNA 2: B1 RNA 2 with U28C, A29G, A46C, A47G, C52U, C53A
B26: target 1 MT 5'PFS GAA 3'PFS AGG (mixed)
RNA 1: B1 RNA 1
RNA 2: B1 RNA 2 with U28A, A46C, A47G, C52A, C53G
B27: target 1 MT 5'PFS AAU 3'PFS ACG (mixed)
RNA 1: B1 RNA 1
RNA 2: B1 RNA 2 with G27A, U28A, A29U, A46C, A47G, C52A
B28: target 1 MT 5'PFS AAU 3'PFS ACA (mixed)
RNA 1: B1 RNA 1
RNA 2: B1 RNA 2 with G27A, U28A, A29U, A46C, A47G, C52A, G54A
B29: target 1 MT 5'PFS GCG 3'PFS UAU (mixed)
RNA 1: B1 RNA 1
RNA 2: B1 RNA 2 with U28C, A29G, A46C, A47G, C52U, C53A, G54U
B30: target 1 MT 5'PFS GGC 3'PFS CGU (mixed)
RNA 1: B1 RNA 1
RNA 2: B1 RNA 2 with U28G, A29C, A46C, A47G, C53G, G54U
B31: target 1 MT 5'PFS ACG 3'PFS UGU (mixed)
RNA 1: B1 RNA 1
RNA 2: B1 RNA 2 with G27A, U28C, A29G, A46C, A47G, C52U, C53G, G54U
B32: target 1 MT 5'PFS GUA 3'PFS CUU (mixed)
RNA 1: B1 RNA 1
RNA 2: B1 RNA 2 with A46C, A47G, C53U, G54U
B33: target 1 MT 5'PFS ACG 3'PFS UGA (mixed)
RNA 1: B1 RNA 1
RNA 2: B1 RNA 2 with G27A, U28C, A29G, A46C, A47G, C52U, C53G, G54A
B34: target 1 insU 3' of 12,insA 3' of 7 (mixed)
RNA 1: B1 RNA 1
RNA 2: B23 RNA 2 with C42U, C47A, G48C, A49G
B35: target 1 MT 5'PFS GUA 3'PFS CUC (mixed)
RNA 1: B1 RNA 1
RNA 2: B1 RNA 2 with A46C, A47G, C53U, G54C
B36: target 1 MT 5'PFS UAA 3'PFS CGA (mixed)
RNA 1: B1 RNA 1
RNA 2: B1 RNA 2 with G27U, U28A, A46C, A47G, C53G, G54A
B37: target 1 MT 5'PFS GUA 3'PFS CUA (mixed)
RNA 1: B1 RNA 1
RNA 2: B1 RNA 2 with A46C, A47G, C53U, G54A
B38: target 1 MT 5'PFS UAA 3'PFS CGG (mixed)
RNA 1: B1 RNA 1
RNA 2: B1 RNA 2 with G27U, U28A, A46C, A47G, C53G
B39: target 1 MT 5'PFS GUA 3'PFS CUG (mixed)
RNA 1: B1 RNA 1
RNA 2: B1 RNA 2 with A46C, A47G, C53U
B40: target 1 MT 5'PFS GGC 3'PFS CGG (mixed)
RNA 1: B1 RNA 1
RNA 2: B1 RNA 2 with U28G, A29C, A46C, A47G, C53G

target: T1, EsCas13d, nuclease-dead (Eubacterium siraeum, UniProt B0MS50, R295A;H300A;R849A;H854A); assay: crRNA (strand 1, pre-loaded); Mg2+; 40 mM Tris-HCl pH 7.5, 150 mM NaCl, 6 mM MgCl2, 1 mM DTT, 0.1% Tween-20, 0.2 mg/ml BSA; 25 C; 10 min per concentration, then washed; settings: tags: His6-TwinStrep-SUMO cleaved; N-terminal SNAP kept (SNAP-Surface 488); label: 3' end held by stalled T7 RNA polymerase
T1 sequence: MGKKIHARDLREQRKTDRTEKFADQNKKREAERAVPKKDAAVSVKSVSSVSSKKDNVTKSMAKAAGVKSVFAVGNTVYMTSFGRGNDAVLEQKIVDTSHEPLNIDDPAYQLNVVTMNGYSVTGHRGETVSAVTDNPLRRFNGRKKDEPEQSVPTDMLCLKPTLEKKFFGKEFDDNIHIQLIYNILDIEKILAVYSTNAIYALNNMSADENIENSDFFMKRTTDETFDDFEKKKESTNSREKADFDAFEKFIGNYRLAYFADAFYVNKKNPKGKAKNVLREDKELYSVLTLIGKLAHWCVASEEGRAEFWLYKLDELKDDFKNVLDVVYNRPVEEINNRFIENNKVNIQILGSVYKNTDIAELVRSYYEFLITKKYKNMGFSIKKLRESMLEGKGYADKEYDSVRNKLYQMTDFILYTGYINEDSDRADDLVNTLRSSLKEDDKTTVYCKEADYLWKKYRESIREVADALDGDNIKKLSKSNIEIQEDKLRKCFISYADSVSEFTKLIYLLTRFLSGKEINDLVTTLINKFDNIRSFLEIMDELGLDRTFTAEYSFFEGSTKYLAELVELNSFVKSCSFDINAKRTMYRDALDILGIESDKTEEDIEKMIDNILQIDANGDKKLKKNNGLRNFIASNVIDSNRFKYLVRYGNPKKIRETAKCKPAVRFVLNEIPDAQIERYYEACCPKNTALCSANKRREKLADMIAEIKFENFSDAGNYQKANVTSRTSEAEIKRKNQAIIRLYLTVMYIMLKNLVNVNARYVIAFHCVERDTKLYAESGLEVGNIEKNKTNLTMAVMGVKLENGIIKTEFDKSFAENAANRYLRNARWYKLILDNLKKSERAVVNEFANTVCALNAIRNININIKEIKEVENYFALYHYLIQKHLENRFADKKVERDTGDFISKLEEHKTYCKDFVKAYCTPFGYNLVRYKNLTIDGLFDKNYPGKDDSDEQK

B1 was tested. Which Kd did it give?
The Kd was 5.75 ± 0.22 nM.

With B2 as the binder, how does the Kd read?
Its Kd is 27.5 ± 6 nM.

Which Kd does the source give for B3 here?
Its Kd is 37.5 ± 8.5 nM.

B4 was tested. Which Kd did it give?
The Kd was 46.5 ± 13.5 nM.

Which Kd does the source give for B5 here?
The Kd was 32 ± 6.5 nM.

B6 was tested. Which Kd did it give?
The Kd was 40 ± 11 nM.

With B7 as the binder, how does the Kd read?
Its Kd is 23 ± 7.5 nM.

How did the Kd turn out when B8 was run?
Its Kd is 12.7 ± 1.4 nM.

For B9, which Kd is on record?
The Kd was 4.75 ± 1.1 nM.

With B10 as the binder, how does the Kd read?
The Kd was about 43 nM.

With B11 as the binder, how does the Kd read?
The Kd was 51 ± 11 nM.

How did the Kd turn out when B12 was run?
The Kd was 27 ± 2.5 nM.

B13 was tested. Which Kd did it give?
The Kd was 42.5 ± 13 nM.

B14 was tested. Which Kd did it give?
The Kd was 3.55 ± 0.8 nM.

B15 was tested. Which Kd did it give?
Its Kd is 65 ± 21 nM.

For B16, which Kd is on record?
Its Kd is 10 ± 4.5 nM.

With B17 as the binder, how does the Kd read?
Its Kd is 8.9 ± 0.55 nM.

B18 was tested. Which Kd did it give?
Its Kd is 4.45 ± 1.5 nM.

B19 was tested. Which Kd did it give?
The Kd was 17 ± 2.6 nM.

With B20 as the binder, how does the Kd read?
The Kd was about 18.5 nM.

B21 was tested. Which Kd did it give?
The Kd was 13.2 ± 2.3 nM.

How did the Kd turn out when B22 was run?
The Kd was 62 ± 21.5 nM.

For B23, which Kd is on record?
Its Kd is 7.9 ± 0.8 nM.

Which Kd does the source give for B24 here?
The Kd was 10.6 ± 1.6 nM.

How did the Kd turn out when B25 was run?
The Kd was 17.5 ± 4 nM.

For B26, which Kd is on record?
Its Kd is 81 ± 34 nM.

For B27, which Kd is on record?
The Kd was 47 ± 13 nM.

Which Kd does the source give for B28 here?
The Kd was about 32 nM.

B29 was tested. Which Kd did it give?
The Kd was 12.2 ± 2.95 nM.

How did the Kd turn out when B30 was run?
Its Kd is 10.7 ± 1.75 nM.

B31 was tested. Which Kd did it give?
The Kd was about 74.5 nM.

Which Kd does the source give for B32 here?
The Kd was 8.52 ± 0.595 nM.

For B33, which Kd is on record?
The Kd was 20.5 ± 7.5 nM.

B34 was tested. Which Kd did it give?
Its Kd is 5.36 ± 0.2 nM.

B35 was tested. Which Kd did it give?
The Kd was 13.8 ± 1.15 nM.

Which Kd does the source give for B36 here?
Its Kd is 50 ± 23 nM.

For B37, which Kd is on record?
The Kd was 10.2 ± 0.7 nM.

B38 was tested. Which Kd did it give?
Its Kd is 55.5 ± 17 nM.

How did the Kd turn out when B39 was run?
The Kd was 7.89 ± 0.47 nM.

How did the Kd turn out when B40 was run?
Its Kd is 27.5 ± 5.5 nM.
